Tests used:
[1] = biological target: VHR (as used in the GST pull-down) (not stated (human or mouse cDNA cloned)) (UniProt P51452)
[2] = biological target: VHR (as used in the GST pull-down) (not stated (human or mouse cDNA cloned)) (UniProt P51452); remark: listed apart in the source

Sequence of UniProt P51452 (P51452 whole entry): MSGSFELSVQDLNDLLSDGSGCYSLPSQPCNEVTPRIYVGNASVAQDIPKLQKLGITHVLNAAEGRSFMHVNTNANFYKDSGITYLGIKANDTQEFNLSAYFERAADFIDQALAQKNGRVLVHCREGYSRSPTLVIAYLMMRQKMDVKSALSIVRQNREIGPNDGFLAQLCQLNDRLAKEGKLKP

in vitro VHR phosphatase activity with purified recombinant p-ERK2 as substrate (1 μg GST-VHR with 2 μg His-HSP70, against VHR alone) [1]: 2 fold | in vitro VHR phosphatase activity with pNPP as substrate (5 μg GST-VHR with 10 μg His-HSP70, against VHR alone) [2]: 2 fold
Substance: GST-tagged full-length HSP70 (from UniProt P0DMV8 1-641) (natural protein)
